Several values for one entry are separate records, joined by “and”; a condition that tells them apart may be missing. Identical values can stand only once. In the oligonucleotide strings, read from the 5' end, every base follows the letter of its sugar. An asterisk marks phosphorothioate; unmarked linkages are phosphodiester. Other units and linkages are bracketed, terminal groups are in braces. A string of capitals states the bases alone. d = 2'-deoxy (DNA)

Series [1] deals with pAURHYG(x)eGFP. Put plainly: Hygromycin gene correction in yeast LSY678 with or without trichostatin A.
The test system of series [2] is mutant kanamycin gene in plasmid pK^Sm4021. Put plainly: Gene repair of plasmid pK^Sm4021 in yeast cell-free extracts, kan^r/amp^r colony readout in E. coli DH10B.
Another series relates to pAURNeo(−)FlAsH plasmid. Put plainly: FlAsH fluorescence assay of neomycin phosphotransferase gene correction in yeast.
In series [3] the test system is pAURHYG(x)eGFP. Put plainly: Strand bias of hygromycin gene correction in rad1 and rad10 yeast mutants.
Another series has as its system CYC1 gene. Put plainly: CYC1 gene repair in diploid yeast strains, growth on glycerol (YPG).
For series [4], the system named is human β-globin gene in YAC. Put plainly: Dual targeting: second-site editing of β-globin gene in YAC, SNaPshot and sequencing. The settings on record: HU, TSA, RAD51 overexpression.
Where [5] appears, read: YMH51 (wild-type CYC1), 5 μg oligo.
Where [6] appears, read: YMH55 with PYNMRE11, 5 μg oligo.
Where [7] appears, read: YMH55 with PYNRAD51, 5 μg oligo.
Setting [8] is: YMH55 with PYNRAD52, 5 μg oligo.
Setting [9] is: YMH55 with PYNRAD54, 5 μg oligo.
Where [10] appears, read: YMH55 with PYNRAD55, 5 μg oligo.
[11] abbreviates: YMH55 with pYN132 (empty vector), 5 μg oligo.
The mark [12] stands for this setting: YMH55 with pYNβ (lambda beta protein expression), 5 μg oligo.

As for `CC(/C=C/C(=O)NO)=C\[C@@H](C)C(=O)c1ccc(N(C)C)cc1` [trichostatin A, reference compound], the “increase of efficiency of gene alteration” value is not below 3 fold in the series on pAURHYG(x)eGFP [1] (50 μg/mL during the recovery period) and “up to several-fold” in the series with pAURHYG(x)eGFP [1] (50 μg/mL for four hours prior to electroporation).

B1: KanGG: chimeric, RNA-DNA double-hairpin oligonucleotide (SEQ ID NO: 1) correcting the mutant kanamycin gene of pK^Sm4021 (nucleic acid)
chain: GCUAUUCGGCUAGGACUGGGCACAAUUUUTTGTGCCCAGTCGTAGCCGAATAGCCTCTCCUUUUGGAGAG
modifications: chimeric RNA-DNA double hairpin, segment chemistry not given here
As for B1, the “Relative Frequency kan^r/amp^r” value in series [2] (0.5 μg oligo, 1 μg plasmid, 10 μg LSY678 extract) is 1.89 ×10^−5; in series [2] (1 μg oligo, 1 μg pK^Sm4021, no extract), 0.002 ×10^−5; in series [2] (1 μg oligo, 1 μg plasmid, 1 μg LSY678 extract), 0.32 ×10^−5; in series [2] (1 μg oligo, 1 μg plasmid, 10 μg LSY678 extract) it was 3.66 ×10^−5 and 2.78 ×10^−5; in series [2] (1 μg oligo, 1 μg plasmid, 20 μg LSY678 extract), 7.601 ×10^−5; in series [2] (1 μg oligo, no plasmid, 20 μg LSY678 extract), 0.0 ×10^−5. Further, the “Relative Frequency kan^r/amp^r” value in series [2] (2.0 μg oligo, 1 μg plasmid, 10 μg LSY678 extract) is 4.005 ×10^−5. Also, the “Relative Correction Efficiency” value in series [2] (10 μg extract LSY386 (Δrad52)) is 25.7 and 26.7 and 19.9; in series [2] (10 μg extract LSY402 (Δrad51)) it was 5.15; in series [2] (10 μg extract LSY407 (Δrad57)), 2.13; in series [2] (10 μg extract LSY678 (wild type)), 1.17 and 1.08 and 1.63; in series [2] (10 μg extract LSY814 (Δmsh2)) it was 0.79; in series [2] (10 μg extract LSY837 (Δrad59)), 0.35. Further, the “Relative Correction Efficiency” value in series [2] (10 μg extract XS827-18C (Δrad54)) came to 1.36; in series [2] (10 μg extract YDR076W (Δrad55)), 1.27; in series [2] (10 μg extract YELO37C (Δrad23)) it was 1.04; in series [2] (extract LSY386•p52 (Δrad52 expressing RAD52)) it was 2.31; in series [2] (extract LSY678•p52 (wild type expressing RAD52)), 0.41; in series [2] (extracts LSY386 (2 μg) + LSY678 (8 μg)), 2.91. Also, the “Relative Correction Efficiency” value in series [2] (extracts LSY386 (2 μg) + YELO37C (8 μg)) was 1.85; in series [2] (extracts LSY386 (4 μg) + LSY678 (6 μg)) it was 5.45; in series [2] (extracts LSY386 (4 μg) + YELO37C (6 μg)) it was 3.71; in series [2] (extracts LSY386 (6 μg) + LSY678 (4 μg)), 10.47; in series [2] (extracts LSY386 (6 μg) + YELO37C (4 μg)), 9.22; in series [2] (extracts LSY386 (8 μg) + LSY678 (2 μg)), 14.36. Besides, the “Relative Correction Efficiency” value in series [2] (extracts LSY386 (8 μg) + YELO37C (2 μg)) is 16.95; in series [2] (oligo only, no plasmid, no extract), 0.0. Also, in series [2] (LSY678 extract expressing RAD52), the “level of repair below wild-type levels” value is on record as 4 fold. In the series on pAURNeo(−)FlAsH plasmid (LSY678 and LSY378), the “corrected cells by green fluorescence (confocal microscopy)” value is “many corrected cells”. In addition, the “number of cells exhibiting green fluorescence” value in the series on pAURNeo(−)FlAsH plasmid (strain lacking RAD52 relative to LSY678) is given as “significant increase”.

B2: Kan70T: non-specific, control oligonucleotide not complementary to the target sequence, SEQ ID NO: 11 (nucleic acid)
DNA: CATCAGAGCAGCCAATTGTCTGTTGTGCCCAGTCGTAGCCGAATAGCCTCTCCACCCAAGCGGCCGGAG
modifications: listed as DNA, chemistry not given here
Consider B2, for which the “Colonies on Hygromycin” value with pAURHYG(x)eGFP [3] (rad1 mutant) and in the series with pAURHYG(x)eGFP [3] (rad10 mutant) was 0 throughout.

B3: beta protein: protein expressed from the bet gene of the Red recombination system of bacteriophage lambda; expressed in yeast from pYNTβ (protein, UniProt P03698 1-261, looked up)
Recombination protein bet: MSTALATLAGKLAERVGMDSVDPQELITTLRQTAFKGDASDAQFIALLIVANQYGLNPWTKEIYAFPDKQNGIVPVVGVDGWSRIINENQQFDGMDFEQDNESCTCRIYRKDRNHPICVTEWMDECRREPFKTREGREITGPWQSHPKRMLRHKAMIQCARLAFGFAGIYDKDEAERIVENTAYTAERQPERDITPVNDETMQEINTLLIALDKTWDDDLLPLCSQIFRRDIRASSELTQAEAVKALGFLKQKAAEQKVAA
Consider B3, for which, in the series with CYC1 gene (beta protein expression, other experiments), the “correction efficiency per 10^5 transformants” value is listed as 0.326.

B4: βThal2: 71mer with three phosphorothioate linkages at 5′ and 3′ ends directing T to C in β-globin, SEQ ID NO: 28 (nucleic acid)
DNA: dT*dA*dA*dCdGdGdCdAdGdAdCdTdTdCdTdCdCdAdCdAdGdGdAdGdTdCdAdGdGdTdGdCdAdCdCdGdTdGdGdTdGdTdCdTdGdTdTdTdGdAdGdGdTdTdGdCdTdAdGdTdGdAdAdCdAdCdAdG*dT*dT*dG
B4: in series [4], the “cells with corrected hygromycin also containing the edited β-globin gene” value is on record as “approximately 10%”.

B5: Cyc1/70T: modified single-stranded vector targeting the transcribed strand of mutant CYC1, three phosphorothioated linkages at each terminus, SEQ ID NO: 21 (nucleic acid)
DNA: dA*dG*dG*dTdGdCdTdAdCdAdCdTdTdTdTdCdAdAdGdAdCdTdAdGdAdTdGdTdCdTdAdCdAdAdTdGdCdCdAdCdAdCdCdGdTdGdGdAdAdAdAdGdGdGdTdGdGdCdCdCdAdCdAdTdAdAdG*dG*dT*dT
For B5, the “No. of YPG Plate Colonies” value in the series on CYC1 gene (setting [5]) is listed as “lawn”; in the series on CYC1 gene (YMH52, 5 μg oligo), 57; in the series with CYC1 gene (YMH53, 5 μg oligo) it was 281; with CYC1 gene (YMH53 with PYNMRE11 + PYNXRS2), 155; with CYC1 gene (YMH53 with PYNRAD52 + PYNRAD54), 103; in the series on CYC1 gene (YMH54, 5 μg oligo), 43. In addition, the “No. of YPG Plate Colonies” value with CYC1 gene (YMH55, 5 μg oligo) is on record as 116. For the same molecule, the C.E. with CYC1 gene (YMH52, 5 μg oligo) is given as 0.17 ×10^−4; with CYC1 gene (YMH53, 5 μg oligo), 0.74 ×10^−4; in the series on CYC1 gene (YMH54, 5 μg oligo) it was 0.14 ×10^−4; in the series with CYC1 gene (YMH55, 5 μg oligo) it was 0.38 ×10^−4. For the same molecule, the “Average C.E.” value in the series on CYC1 gene (YMH53 with PYNMRE11 + PYNXRS2) is reported as “.263 ×10^−5”; in the series on CYC1 gene (YMH53 with PYNRAD52 + PYNRAD54), “.185 ×10^−5”; in the series with CYC1 gene (YMH53 with pYN132), 0.03169 ×10^−5. The Fold came to 8.29 in the series on CYC1 gene (YMH53 with PYNMRE11 + PYNXRS2), 5.82 in the series on CYC1 gene (YMH53 with PYNRAD52 + PYNRAD54) and 1 in the series with CYC1 gene (YMH53 with pYN132).

B6: Cyc1/70NT: modified single-stranded vector targeting the nontranscribed strand of mutant CYC1, three phosphorothioated linkages at each terminus, SEQ ID NO: 22 (nucleic acid)
DNA: dA*dA*dC*dCdTdTdAdTdGdTdGdGdGdCdCdAdCdCdCdTdTdTdTdCdCdAdCdGdGdTdGdTdGdGdCdAdTdTdGdTdAdGdAdCdAdTdCdTdAdGdTdCdTdTdGdAdAdAdAdGdTdGdTdAdGdCdA*dC*dC*dT
For the molecule B6, the “No. of YPG Plate Colonies” value is listed as “lawn” in the series with CYC1 gene (setting [5]); 186 in the series with CYC1 gene (YMH52, 5 μg oligo); 73 with CYC1 gene (YMH53, 5 μg oligo); 178 in the series on CYC1 gene (YMH53 with PYNMRE11 + PYNXRS2); 109 in the series on CYC1 gene (YMH53 with PYNRAD52 + PYNRAD54); 80 with CYC1 gene (YMH54, 5 μg oligo). Further, the “No. of YPG Plate Colonies” value in the series with CYC1 gene (YMH55, 5 μg oligo) came to 895; in the series on CYC1 gene (setting [6]) it was 25; with CYC1 gene (setting [7]), 260; with CYC1 gene (setting [8]), 108; with CYC1 gene (setting [9]) it was 42; in the series on CYC1 gene (setting [10]), 410. Further, the “No. of YPG Plate Colonies” value in the series with CYC1 gene (YMH55 with PYNXRS2, 5 μg oligo) is reported as 22; with CYC1 gene (setting [11]), 19; with CYC1 gene (setting [12]), 166. Moreover, the C.E. in the series on CYC1 gene (YMH52, 5 μg oligo) is 0.47 ×10^−4; in the series on CYC1 gene (YMH53, 5 μg oligo) it was 0.21 ×10^−4; in the series on CYC1 gene (YMH54, 5 μg oligo), 0.28 ×10^−4; with CYC1 gene (YMH55, 5 μg oligo), 2.99 ×10^−4. In addition, the “Average C.E.” value in the series with CYC1 gene (YMH53 with PYNMRE11 + PYNXRS2) is 0.322 ×10^−5; in the series on CYC1 gene (YMH53 with PYNRAD52 + PYNRAD54), 0.179 ×10^−5; with CYC1 gene (YMH53 with pYN132), 0.0056 ×10^−5; in the series on CYC1 gene (setting [6]) it was 0.04 ×10^−5; in the series on CYC1 gene (setting [7]) it was 0.52 ×10^−5; with CYC1 gene (setting [8]), 0.22 ×10^−5. Besides, the “Average C.E.” value in the series with CYC1 gene (setting [9]) is reported as 0.09 ×10^−5; in the series with CYC1 gene (setting [10]), 0.78 ×10^−5; in the series with CYC1 gene (YMH55 with PYNXRS2, 5 μg oligo), 0.03 ×10^−5; in the series with CYC1 gene (setting [11]), 0.04 ×10^−5; in the series on CYC1 gene (setting [12]) it was 0.32 ×10^−5. The Fold in the series on CYC1 gene (YMH53 with PYNMRE11 + PYNXRS2) was found to be 57.48; in the series with CYC1 gene (YMH53 with PYNRAD52 + PYNRAD54) it was 32.01; with CYC1 gene (YMH53 with pYN132), 1; in the series on CYC1 gene (setting [6]), 1.1; with CYC1 gene (setting [7]) it was 14.8; with CYC1 gene (setting [8]), 6.2. Also, the Fold came to 2.4 with CYC1 gene (setting [9]); 22.2 in the series on CYC1 gene (setting [10]); 1.34 in the series with CYC1 gene (YMH55 with PYNXRS2, 5 μg oligo); 1 with CYC1 gene (setting [11]); 9.1 with CYC1 gene (setting [12]).

Values taken from patent publication US7566535B2, “Enhanced oligonucleotide-mediated nucleic acid sequence alteration” (University of Delaware, priority 2002, dated 2009).
